According to the supplement of paper PMC9732359:
± gives the uncertainty stated by the source.

Assay: protein stability index of a GFP-peptide fusion (yeast GPS) (PSI 1-4); higher = more stable; sorted into four equal gates, so the index is relative within each strain
In short: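 Tiled 17-residue peptides from yeast proteins were fused downstream of GFP on a plasmid that also expresses Cherry, and the pooled library was carried in yeast. Mid-log cultures grown in leucine-free medium were sorted into four equal gates by GFP/Cherry fluorescence ratio. Plasmids from each gate were PCR-amplified and Illumina-sequenced, and reads were assigned to strains by barcodes. Each peptide's protein stability index is the sum, over gates, of the gate's read frequency multiplied by its gate number.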

Sequence	protein stability index (doa10∆)	protein stability index (pdr5∆)	protein stability index (san1∆)	protein stability index (ubr1∆)
MGVRTFSQKEMAFNLLG [FAS2]	2.1 ± 0.078	1.9 ± 0.057	2.15 ± 0.083	2.21 ± 0.046
EEDADQEESFSLNLGIG [SRB8]	3.2 ± 0.14	3.01 ± 0.27	2.94 ± 0.17	–
GALDVEGLCIVAGSKCW [RRP45]	2.83 ± 0.12	2.96 ± 0.11	2.87 ± 0.077	2.9 ± 0.13
ALYPQEARLRNLTYSSG [RPB2]	2.39 ± 0.093	2.73 ± 0.1	2.75 ± 0.085	2.49 ± 0.089
RRLHDENLMVQRTCLMT [YCS4]	2.43 ± 0.064	2.44 ± 0.057	2.45 ± 0.058	2.24 ± 0.047
PEVSMIRDIREKELKIF [RPB2]	3.13 ± 0.15	2.41 ± 0.084	3.38 ± 0.075	2.69 ± 0.13
DSALRYSILGDRFKYRS [POP4]	3.27 ± 0.18	3.04 ± 0.23	3.23 ± 0.098	–
ELRYQSHILNSHSLALN [DSN1]	2.29 ± 0.066	2.66 ± 0.058	2.63 ± 0.057	2.66 ± 0.049
IHYSWSFILYYRRALQS [YML103C/NUP188]	1.48 ± 0.064	1.09 ± 0.042	1.26 ± 0.11	1.12 ± 0.082
EAAKLLVDSLATFTSIE [RPN7]	3.24 ± 0.18	3.1 ± 0.098	3.24 ± 0.096	2.68 ± 0.096
ELLEHIETIGHLITKEE [RPN5]	2.91 ± 0.076	3.03 ± 0.11	3.08 ± 0.068	3.12 ± 0.076
IKQQQQQQQQQNGQQPP [YML103C/NUP188]	2.31 ± 0.036	2.63 ± 0.039	2.48 ± 0.04	2.39 ± 0.034
EYINNCKKNTKKCLKLA [POP4]	2.82 ± 0.13	3.1 ± 0.13	2.99 ± 0.077	2.78 ± 0.14
EKNEKEREIKRRKFDPS [UBP6]	3.3 ± 0.05	3.25 ± 0.051	3.09 ± 0.044	3.25 ± 0.057
ELLDFLTSNLSNYSRTM [YJL039C/NUP192]	2.35 ± 0.076	2.54 ± 0.079	2.82 ± 0.054	2.59 ± 0.085
RKHHKKGITEEVAKKRS [RPL24A]	3.36 ± 0.12	3.45 ± 0.2	3.19 ± 0.17	3.02 ± 0.092
IPNIPPNINTWQQVTAL [GAL11]	2.96 ± 0.14	3.15 ± 0.1	2.9 ± 0.11	2.54 ± 0.12
AVPAATPANTNNSTSNA [SWI1]	2.52 ± 0.06	2.99 ± 0.053	2.65 ± 0.053	2.96 ± 0.04
LLMRLEGNYRNLNNLKQ [RPB8]	3.29 ± 0.14	3.13 ± 0.13	3.22 ± 0.2	3.37 ± 0.082
KPTSHKQLQQPKSSPLK [SIR4]	2.87 ± 0.057	3 ± 0.058	3.04 ± 0.039	2.95 ± 0.032
AFHTAVLRLNAIPLLKV [NUT1]	1.94 ± 0.059	2.43 ± 0.053	2.35 ± 0.07	1.99 ± 0.05
MDYHFIFSYLQFTSSLF [RGR1]	2.08 ± 0.046	1.39 ± 0.043	1.25 ± 0.076	1.21 ± 0.047
KKRSKARKETYSSYIYK [HTB1]	2.84 ± 0.24	2.9 ± 0.15	–	2.95 ± 0.15
PTGPKTAIDKNGNITYS [FAS2]	2.9 ± 0.061	3.08 ± 0.057	3 ± 0.059	2.91 ± 0.057
QFNKILPEPTEGFAADD [FAS1]	2.79 ± 0.067	3.07 ± 0.08	2.91 ± 0.081	2.77 ± 0.11
LLIDQFSPVISQSLTSI [SWI1]	1.64 ± 0.074	1.99 ± 0.067	1.64 ± 0.11	1.66 ± 0.064
NFAHSDSLSVPKVSAGD [SIR4]	2.95 ± 0.11	2.98 ± 0.12	2.76 ± 0.054	3.27 ± 0.11

Sequence	protein stability index (doa10∆)	protein stability index (pdr5∆)	protein stability index (san1∆)	protein stability index (ubr1∆)
LNDRFQTLSSHLEALQP [PGD1]	2.64 ± 0.04	2.69 ± 0.042	2.63 ± 0.04	2.54 ± 0.032
IQIDEETENSESIASSN [MCD1]	2.4 ± 0.071	2.73 ± 0.072	2.5 ± 0.082	2.76 ± 0.051
PYCPIASITGTGSNDRC [YMR129W/POM152]	1.96 ± 0.099	1.82 ± 0.1	1.56 ± 0.18	1.64 ± 0.055
RYSMSEQFPFYLHDNAS [IRR1]	3.02 ± 0.09	3.01 ± 0.06	2.97 ± 0.063	3.03 ± 0.042
NRTFTDPPFRIEEQGWG [TAF14]	3.11 ± 0.067	3.24 ± 0.057	3.11 ± 0.1	3.07 ± 0.054
DLASSKEVLAKIVDLLA [RPN5]	2.85 ± 0.21	3.43 ± 0.24	2.98 ± 0.091	2.97 ± 0.11
QRLIFAGKQLEDGRTLS [RPS31]	2.8 ± 0.12	2.97 ± 0.078	3.38 ± 0.067	2.27 ± 0.12
LNVIIDQLAVSPEQIDA [YCS4]	2.19 ± 0.05	2.44 ± 0.056	2.11 ± 0.064	2.11 ± 0.044
PDISRAVINIRDDGKRE [RPO31]	2.78 ± 0.083	2.29 ± 0.07	2.74 ± 0.11	2.77 ± 0.063
TSDPVMHKQLAYILAAQ [RPN1]	1.68 ± 0.15	2.52 ± 0.17	–	2.1 ± 0.11
DLSRNGRNGSNGNDESS [NUT1]	3.19 ± 0.078	3.33 ± 0.09	3.18 ± 0.059	3.14 ± 0.068
ELPLEDFKAKYCDSMGR [RPB5]	3.31 ± 0.13	3.29 ± 0.14	3.74 ± 0.13	3.51 ± 0.12
VSPNDNNSANNNAHSSD [YMR153W/NUP53]	2.91 ± 0.05	2.84 ± 0.06	2.75 ± 0.053	2.56 ± 0.037
EISRLKTSLSIKVENLN [SMC2]	2.76 ± 0.077	2.55 ± 0.13	2.39 ± 0.17	2.56 ± 0.064
NFPEASKLSEHLNHYIL [YCG1]	2.53 ± 0.29	2.51 ± 0.11	2.66 ± 0.17	2.53 ± 0.09
GAHGNSDPVCLFVCNKD [POP3]	3 ± 0.098	3.37 ± 0.12	3.07 ± 0.084	2.8 ± 0.059
PSFTFGGSTTNNTTTTS [YOR098C/NUP1]	3.04 ± 0.099	3.19 ± 0.091	3.08 ± 0.056	3.36 ± 0.073
ADINKNFLSVITNKHQE [RPN2]	1.93 ± 0.074	2.11 ± 0.06	1.84 ± 0.087	1.71 ± 0.057
TSQMDLARDTPSANNSS [RRP4]	1.86 ± 0.042	1.46 ± 0.064	1.91 ± 0.077	1.51 ± 0.045
NNNNTTTTTTTTNNNNT [SWI1]	3.07 ± 0.031	2.68 ± 0.032	3.363 ± 0.023	3.128 ± 0.02
ERYYELAFDKLNVPVFQ [ARP7]	1.87 ± 0.064	2.17 ± 0.073	1.83 ± 0.1	2.07 ± 0.07
THQSPPPPPQQSQPIAN [SNF5]	3.01 ± 0.057	3.07 ± 0.043	2.98 ± 0.04	2.94 ± 0.046
MKPSEILSLIEEAAGTK [SMC2]	3.24 ± 0.1	3.23 ± 0.084	3.22 ± 0.083	3.22 ± 0.064
LRLRGGIIEPSLKALAS [RPL40A]	3.1 ± 0.046	3.02 ± 0.048	2.7 ± 0.048	3.02 ± 0.045
SKPVLIVGQKNLNRAFN [DIS3]	3.08 ± 0.11	2.8 ± 0.1	2.77 ± 0.055	2.8 ± 0.088
IYKSIFNVVDVGVDQLS [YJL039C/NUP192]	3.11 ± 0.055	2.92 ± 0.047	3.05 ± 0.041	3.05 ± 0.042
